Test results from the RNAGym collection of RNA variant scans (doi:10.1073/pnas.2313332121).
This sample holds only a part of the variants without activity.

B1: TPR 5TU (parent)
chain: GGAUCUUCUCGAUCUAACAAAAAAGACAAAUCUGCCACAAAGCUUGAGAGCAUCUUCGGAUGCAGAGGCGGCAGCCUUCGGUGGCGCGAUAGCGCCAACGUUCUCAACUAUGACACGCAAAACGCGUGCUCCGUUGAAUGGAGUUUAUCAUG

Variants of: B1
Experiment: polymerase ribozyme fitness, log enrichment relative to wild type (log ratio); higher = more active; in vitro selection for triplet polymerase activity
Method in brief: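 Genotype fitness is the logarithm of its enrichment divided by wild-type enrichment, using inverse-variance-weighted averages of replicates. That logarithm is base 2. Enrichment was measured by Illumina sequencing of input and output libraries from one triplicate in vitro selection round, with frozen incubation at −7 °C, on PCR-built, transcribed mutant libraries of each subunit of a heterodimeric triplet polymerase ribozyme, retaining genotypes with ≥10 input reads and ≥1 read per output.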

Variant	polymerase ribozyme fitness (log ratio)
A24U A29C A73G G86U A89C G140U A150G	≤ -4.2
A26C A52C C69U G100A C125A	≤ -4.2
A24U C131U	2.4
G25U A52C U90C C95U U111A U135A U151G	≤ -4.2
G25A A37G C54A C87G	≤ -4.2
A24U C93U G136A	-1.47
A26C A41C A49C G62C A138G	≤ -4.2
G25U C35U A49U G68A G81A U109G C118U G126C	≤ -4.2
G25U G50C C76A C87A U139G G141C	-4.02
G25A G34U C35G C85G	-4.2
A26C A107G	≤ -4.2
G25U A39G U61A U77A C87U G141A U151A	≤ -4.2
A24U A52G	0.771
A24G U53A C96G A122G A142C	≤ -4.2
A24U U151A	≤ -4.2
A26C A52G	-1.25
A26C C76U G81U G86A U144C	-3.81
A26C C36A U44G U55A G140C	-4.19
G25C A39C C76A C79U C87A A110U C114U	≤ -4.2
G25A C38U C85G	-4.07
A24U C35A A52U G84A G136A	≤ -4.2
G25C U31A C96G	-1.31
A24U C35A C85U C132A	≤ -4.2
A24U A52G C69G G70C G88A	≤ -4.2

Variant	polymerase ribozyme fitness (log ratio)
A24G G34A G58C C87A C99U	≤ -4.2
A24U C87A	≤ -4.2
A24U C87U	-0.48
A24G G42U C72A A91U G92A U102G G136U	≤ -4.2
A26C C35U U44A C57U G58U C85A	≤ -4.2
A26C C57A A60C G88A U109G A110G C118G	-3.98
A24U U55C C85A	-1.34
G25C U56G G84A A89G U130C	-2.97
A24U C38G C57G G83C A91U C105A C149A	≤ -4.2
G25U G81A G94U A120U G141C	-3.76
A24U C51A U56A G71U G88C U102C	≤ -4.2
A24U A73U A119G A121U C132A	-3.66
A24U G42C G84A C93U G94C C99A A122G	≤ -4.2
A24U G68C G81C G94A A98C U104C	≤ -4.2
A26C A47C A52C G58C G71A G100C C116A	≤ -4.2
G25C C76U C79G C93A C118U	≤ -4.2
G25U C132U	-2.32
A24U U53A U55A C95U C99A	≤ -4.2
A26C A52U C54U G58A G71A G74C C87U C108A	≤ -4.2
G25C A41C A52G G86A C96A	≤ -4.2
G25A A26G A40G A47C C85A C116G A119C	≤ -4.2
G25C U56A U104C A106U A113G U139G U145A	≤ -4.2
G25U G42A C87G	≤ -4.2
G25U C87U C93G A138U	≤ -4.2

Variant	polymerase ribozyme fitness (log ratio)
G25C G46A U144C	-4.12
A24U C38A G50U U55A U61G G68C G84U G141A U151G	≤ -4.2
G25U G84A C131U G136A U144G	-1.89
G25U G46C G50A G62A C96U	≤ -4.2
A24U C57U A89U G92C U127C C131G	≤ -4.2
A26C A29C G65A C87G A97G A142G	≤ -4.2
A24U G59C	0.829
G25C C85U A89U U135G	≤ -4.2
A24G G74A C93G G140C U151G	≤ -4.2
A24U C96U G117A G133A U145A	≤ -4.2
G25C G46C C85G C87U G124C C125U U146C	≤ -4.2
G25A G34C U44A G84A G88A	≤ -4.2
A24U A26U G48C G83A A115U C116U	≤ -4.2
A24U G58C G88A C93U A121G	≤ -4.2
G25C A49C C51U U53G C54A C116U G141A G152U	≤ -4.2
A24U G94A G143U	-3.4
G25U C99U A119C A120G	-3.26
G25U G83A C95A A138U U139C	≤ -4.2
G25U G86A C105U	-3.5
G25U C69G G83U C95U	-3
G25A U82C C105G A121U	-4.07
G25U A47G A60G C75A A91U A122U G141C A142G	≤ -4.2
G25U A39U U53A C76G U145A	≤ -4.2
A24U A26C C27G C36G G81A A98G G136U U139G A142C	≤ -4.2

Variant	polymerase ribozyme fitness (log ratio)
A24G G62U G94A C116G A120U U127A U135C	≤ -4.2
A24U U45G G92C	-2.88
A24U U56A U148A	-3.8
G25U A39U U55A U102C U109G C114U A120U A122G U144G	≤ -4.2
A24G G25C A49U G84A U102G	≤ -4.2
A26C A47G C63A A91C A97U A98G A138U	≤ -4.2
A26C A41G C54U C75G G88A A107G	≤ -4.2
G25U A89C	-3.41
G25C A52C G58C G62U U78G U82C C93A C125G	≤ -4.2
A24U A29G A52G A91U G126U U144G	≤ -4.2
G25U G50U C54A A66U A91C	≤ -4.2
G25C C27A A28G A40U C149A	≤ -4.2
A24U G136U	-2.44
A24U A26U C54U G84U U127A	≤ -4.2
G25A A64G G88A	≤ -4.2
G25C G83C C87G A91G	≤ -4.2
G25A C27G U44A G86C A97U A110C	≤ -4.2
A24U A41G C69A C99G	-2.54
G25C C54A C76U G88A	≤ -4.2
G25U C85U U101C	-2.41
A24U A47C G86A G94C C118U A137G	≤ -4.2
A26C A73G C105U U146G	-3.66
A24U C43A A60C C96A A119U G126A	≤ -4.2
A24U U55G	0.467

Variant	polymerase ribozyme fitness (log ratio)
A24U U55A	-0.466
A24G C123U C132U U134A	≤ -4.2
A24U A41G U53G G124C C131U	-1.4
A24U G34U A47C C95G C108A A110G A138C A147C G152A	≤ -4.2
G25C A119C	-2.68
A26C	-1.49
A24U G94A	0.123
G25C C75A U104A A119U U134G U135A	≤ -4.2
A24U G58C U104A G141U	-1.93
A24G U33G G71A C87G C93G C96A A98G A137G	≤ -4.2
G25U G46A C57U C69A G128U A138U	≤ -4.2
A24U A40C A49C C72G G83U C87G U139G U144C U151G	≤ -4.2
A26C C57G G80A	-4.09
A24U C38U	0.361
G25C C93U	-3.59
A26C C32G C54U C87G C95U	-3.91
G25U A26C A49G U61A C76U U104A C114U A119C	≤ -4.2
G25U A49C G68U G84A C87G A89U G94C C114A U148G	≤ -4.2
A24U C96G	-0.301
A24U C96U	0.0587
G25U G83A	-3.4
A24U C125A	-0.572
A24U A28C U33A G59A G140U U144G U146G	≤ -4.2
A24U C51G U55A G59C	-2.27

Variant	polymerase ribozyme fitness (log ratio)
A24U A39U C96A C99G U130C C131G	≤ -4.2
A24U U102C A120G A121C	-2.13
G25C C87A G100U	≤ -4.2
A24U C85U	-0.914
A26C C32A U53G U56A C75U U104A U111C A120G	≤ -4.2
G25U G50C C87G G136U	≤ -4.2
A24U C76G A138G	≤ -4.2
A24U G74C	-4.19
G25U C76U	-2.44
A24G C116G	-2.85
A24G G80C G83C A115U U134A	≤ -4.2
G25U G50C U77A C87U A107G	≤ -4.2
A24G G86U	-3.77
A26C C38G G68C C76U G84U U139G	≤ -4.2
A24G U145A	-3.78
G25U C85U C116G A120U G141C	≤ -4.2
G25C C35U G74C C75A U148G	≤ -4.2
A24U A26G A64C G84U A97U A122C	≤ -4.2
G25U U148A	≤ -4.2
A24U C93U A142C	-2.21
A26C C51G G65A G74C G81U C93G A119U C132U G141C	≤ -4.2
A26C C76A	-3.75
G25U G84U	-3.64
A24U U53A C57G A115U U151A	≤ -4.2

Variant	polymerase ribozyme fitness (log ratio)
G25U A41G U53G C54U G92C G124A U151C	≤ -4.2
A24U C35U C38G A89U A91U	-3.93
A24U A30C G140A	-3.94
G25C A52C U56A C85U G124C	≤ -4.2
G25U C32U A40U U56A G80C C85A C87A C116G U146G A150U	≤ -4.2
A24U A26U U55C A91G	≤ -4.2
A24U A40C A98U	0.235
G25U C38U A47U U56G U61A G65C C79G C103G U134A	≤ -4.2
G25C A66G A106C	≤ -4.2
G25U U44G U45A U56A G80A C85U A97U	≤ -4.2
G25U G42A A49C G80A C85G C95U C103A	≤ -4.2
A26C A49C	≤ -4.2
A24G U53A U61A G84C C125U	≤ -4.2
G25U G59A G62C C116U U145A	-1.79
G25U A49G G59U C99A	≤ -4.2
G25C C57A C63A G92C A113C U134A	≤ -4.2
A24U C35A C87A A91C A150G	≤ -4.2
A24U C149G	-3.88
A26C C35U U55A C76U C87G G92U A98G	-3.11
G25U C32U C36A C85U C114U C129U U134C	≤ -4.2
A24U G67C C76G G83U	-2.24
A24U G58A A66U C87A U90G U146C	≤ -4.2
A24G U31A C38G U53A C57A U77C G83A A137C	≤ -4.2
